In publication PMC10244618:
Where “and” joins values, the source holds several entries; their conditions need not be identical. Identical values can stand only once.

B1: NF2 (merlin) isoform 7, human, full length (507 aa, lacks exons 2-3 = isoform-1 residues 39-121; exon-16 C-terminus), P35240-4 (parent)
chain: MAGAIASRMSFSSLKRKQPKTFTVRIVTMDAEMEFNCEVKKQILDEKIYCPPEASVLLASYAVQAKYGDYDPSVHKRGFLAQEELLPKRVINLYQMTPEMWEERITAWYAEHRGRARDEAEMEYLKIAQDLEMYGVNYFAIRNKKGTELLLGVDALGLHIYDPENRLTPKISFPWNEIRNISYSDKEFTIKPLDKKIDVFKFNSSKLRVNKLILQLCIGNHDLFMRRRKADSLEVQQMKAQAREEKARKQMERQRLAREKQMREEAERTRDELERRLLQMKEEATMANEALMRSEETADLLAEKAQITEEEAKLLAQKAAEAEQEMQRIKATAIRTEEEKRLMEQKVLEAEVLALKMAEESERRAKEADQLKQDLQEAREAERRAKQKLLEIATKPTYPPMNPIPAPLPPDIPSFNLIGDSLSFDFKDTDMKRLSMEIEKEKVEYMEKSKHLQEQLNELKTEIEALKLKERETALDILHNENSDRGGSSKHNTIKKPQAQGRRPICI

Variants of: B1
Experiment: reverse yeast two-hybrid deep mutational scan (rY2H-seq): NF2 isoform 7 mutant library as bait mated with wild-type prey strains; selection on medium lacking adenine for non-interacting pairs; NextSeq paired-end sequencing; enrichment vs …
Settings: with EMILIN1 (elastin microfibril interfacer 1), Q9Y6C2; yeast diploids after mating (RBait_S3 x RPrey_S3), 30 °C, selection for reporter genes on NB agar; human ABL2 co-expressed as the kinase-dead K35M mutant …; HIGHER = WEAKER BINDING (the opposite of display enrichments): higher = stronger loss of interaction: reverse Y2H selects yeast in which bait and prey do NOT interact (growth without adenine), so a …; hits-only table; scale: rY2H score; numbering: uniprot, sequence starts at 1

| Variant | enrichment |
| --- | --- |
| Q376L | 2.08 |
| P396L | 3.03 |
| P396A | 1.61 and 2.83 |
| E359K | 1.99 |
| R383L | 3.93 and 2.71 |
| M431A | 2.04 |
| M431E | 5.53 |
| M431K | 2.78 |
| E472R | 2.84 and 2.55 |
| R364E | 1.5 |
| P410L | 3.26 and 3.02 |
| R379L | 2.11 |
| R379A | 2.05 |
| K490E | 5.91 |
| L355K | 3.38 |
| M401W | 2.39 |
| M401A | 2.05 |
| A385K | 1.6 |
| A385L | 1.74 |
| P405E | 1.6 |
| P405Q | 3.57 and 2.37 |
| T473L | 4.41 |

| Variant | enrichment |
| --- | --- |
| D476K | 6.16 |
| P409L | 2.46 |
| P409A | 2.09 |
| K427T | 2.98 |
| A406I | 8.86 |
| A406S | 7.48 and 4.82 |
| L422K | 3.21 |
| D425A | 2.63 |
| D420A | 2.04 |
| V352E | 1.87 |
| K366A | 3.27 |
| Q387L | 1.46 |
| T397R | 2.87 and 2.64 |
| T397A | 2.04 |
| P413L | 1.88 |
| K388A | 1.75 |
| D430L | 1.61 |
| D430K | 3.35 |
| A378K | 5.56 |
| D411K | 2.21 |
| K372E | 5.53 and 3.24 |

Same assay, conditions: with NF2 C-terminal domain (wild type; homomeric NF2-NF2 interaction), P35240; yeast diploids after mating (RBait_S3 x RPrey_S3), 30 °C, selection for reporter genes on NB agar; human ABL2 co-expressed as the kinase-dead K35M mutant …; HIGHER = WEAKER BINDING (the opposite of display enrichments): higher = stronger loss of interaction: reverse Y2H selects yeast in which bait and prey do NOT interact (growth without adenine), so a …; hits-only table; partner unresolved; scale: rY2H score; numbering: uniprot, sequence starts at 1

| Variant | enrichment |
| --- | --- |
| Q376L | 3.07 |
| A331E | 1.53 |
| K313T | 6.36 and 7.06 |
| R364K | 2.52 |
| R364E | 2.76 |
| P410L | 2.14 and 2.85 |
| R379E | 1.99 |
| Q345L | 1.49 and 2.6 |
| L355E | 1.76 |
| L315K | 1.46 |
| A385K | 3.03 |
| A385L | 1.47 and 2.16 |
| P405E | 1.76 |
| T473L | 3.74 and 2.38 |
| P409L | 3.35 and 2.55 |
| I329K | 2.98 and 2.25 |
| W175E | 1.97 |
| W175A | 2.08 |
| T269E | 3.61 |
| D420A | 2.35 |
| D369K | 2.61 |
| A128V | 1.47 |
| E323L | 3.82 |
| E323A | 1.8 |
| H75E | 2.7 |
| L156W | 5.5 and 4.13 |
| A378K | 4.21 |
| R263E | 3.74 |
| S294K | 4.08 |

Same assay, conditions: with EMILIN1 (elastin microfibril interfacer 1), Q9Y6C2; yeast diploids after mating (RBait_S3 x RPrey_S3), 30 °C, selection for reporter genes on NB agar; human tyrosine kinase ABL2 co-expressed as the active kinase …; HIGHER = WEAKER BINDING (the opposite of display enrichments): higher = stronger loss of interaction: reverse Y2H selects yeast in which bait and prey do NOT interact (growth without adenine), so a …; hits-only table; scale: rY2H score; numbering: uniprot, sequence starts at 1

| Variant | enrichment |
| --- | --- |
| P396L | 2.65 |
| E359K | 1.99 |
| E264A | 12.8 |
| R166N | 2.2 |
| R166S | 8.73 |
| A331K | 4.31 |
| A331E | 2.11 |
| K313T | 6 |
| G157E | 5.67 and 3.65 |
| G157K | 3.64 |
| R364K | 2.07 |
| R364E | 5.32 |
| P410L | 5.11 and 2.8 |
| Q324Y | 1.67 |
| R77W | 1.39 |
| R379A | 2.9 |
| R379E | 3.11 and 8.92 |
| Q279E | 2.35 |
| Q345L | 2.57 |
| Q345E | 3.31 |
| L355E | 1.61 |
| E309A | 2.33 |
| A287T | 1.8 |
| L315K | 4.2 |
| L315W | 7.24 |

| Variant | enrichment |
| --- | --- |
| M401W | 2.1 and 5.12 |
| R328T | 2.61 |
| R363E | 3.15 |
| T336K | 4.16 |
| K304W | 13.1 and 10.8 |
| K340L | 1.95 and 2.03 |
| E148K | 2.78 and 2.12 |
| E111A | 4.1 |
| K229L | 1.52 |
| E282L | 3.15 |
| D476K | 4.37 |
| P409A | 3.21 and 3.14 |
| I329K | 1.63 and 1.9 |
| T168A | 2.55 |
| N143I | 5.68 and 2.91 |
| R270K | 5.67 |
| W175E | 6.77 |
| W175A | 4.36 |
| A406I | 3.97 |
| A406S | 14.3 |
| Q306E | 8.86 |
| K318A | 5.52 |
| R341T | 3.59 |
| T269E | 4.01 |
| A290L | 38.6 |

| Variant | enrichment |
| --- | --- |
| Q387L | 1.83 |
| D369K | 2.69 and 1.81 |
| A128V | 1.56 |
| I141L | 7.65 |
| V74S | 6.93 |
| K144L | 2.68 |
| E323L | 2.75 |
| E323G | 1.92 |
| E323A | 1.45 |
| H75E | 6.72 |
| T106L | 4.33 |
| P413L | 2.88 |
| F173S | 1.69 |
| E325A | 2.68 |
| E325T | 6.21 |
| L156W | 1.61 and 3.25 |
| A378T | 2.24 |
| L342T | 4.63 |
| R263E | 2.7 |
| R263G | 1.44 |
| S60F | 3.78 |
| K372E | 4.46 and 4.21 |
| S294K | 4.59 and 3.72 |
| F79A | 4.71 |

Same assay, conditions: with KDM1A (lysine-specific histone demethylase 1A; the table's label AOF2 is a gene synonym of KDM1A), O60341; yeast diploids after mating (RBait_S3 x RPrey_S3), 30 °C, selection for reporter genes on NB agar; human ABL2 co-expressed as the kinase-dead K35M mutant …; HIGHER = WEAKER BINDING (the opposite of display enrichments): higher = stronger loss of interaction: reverse Y2H selects yeast in which bait and prey do NOT interact (growth without adenine), so a …; hits-only table; scale: rY2H score; numbering: uniprot, sequence starts at 1

| Variant | enrichment |
| --- | --- |
| P396L | 2.88 |
| E359K | 7.74 |
| A331K | 2.19 |
| K313T | 11.8 and 11.3 |
| M431E | 3.66 |
| R364K | 3.56 |
| P410L | 5.35 and 7.09 |
| Q324Y | 1.47 |
| R379A | 2 |
| R379E | 6.74 |
| Q279E | 4.82 |
| Q345L | 3.2 |
| M401A | 3.12 |
| K304W | 17 |
| K340L | 3.29 |
| A385L | 1.79 |
| P405E | 2.38 |
| T473L | 8.75 |
| P409L | 1.48 and 1.82 |
| P409A | 4.62 |

| Variant | enrichment |
| --- | --- |
| A406I | 6.43 |
| A406S | 11.8 |
| L422K | 1.93 |
| K318A | 3.56 |
| R341T | 2.28 |
| D369K | 2.15 |
| T397R | 2.17 |
| T397A | 1.66 |
| E323A | 1.84 and 3.01 |
| H75E | 2.15 |
| F173S | 3.95 |
| E325A | 3.73 |
| E325T | 4.73 |
| L156W | 4.82 and 4.33 |
| K388A | 2.24 and 3.28 |
| D430L | 3.75 |
| A378T | 1.71 |
| L342T | 2.83 and 2.72 |
| K372E | 1.68 |

Same assay, conditions: with KDM1A (lysine-specific histone demethylase 1A; the table's label AOF2 is a gene synonym of KDM1A), O60341; yeast diploids after mating (RBait_S3 x RPrey_S3), 30 °C, selection for reporter genes on NB agar; human tyrosine kinase ABL2 co-expressed as the active kinase …; HIGHER = WEAKER BINDING (the opposite of display enrichments): higher = stronger loss of interaction: reverse Y2H selects yeast in which bait and prey do NOT interact (growth without adenine), so a …; hits-only table; scale: rY2H score; numbering: uniprot, sequence starts at 1

| Variant | enrichment |
| --- | --- |
| P396A | 4.55 |
| R166N | 1.82 |
| A331K | 4.83 |
| P410L | 6.37 and 2.41 |
| R379E | 5.6 |
| Q345L | 2.39 |
| Q345E | 3.73 |
| M401A | 3.23 and 2.41 |
| T336K | 2.26 and 6.75 |
| E148K | 1.49 |
| A385L | 1.94 |
| E111A | 1.51 |
| P409L | 3.03 |
| P409A | 3.57 and 4.04 |
| I329K | 2.5 |
| A406S | 14 |
| K318A | 3.09 |
| Q387L | 2.07 |
| K144L | 3.56 |
| E323L | 1.55 |
| L156W | 5.87 |
| K388A | 1.43 and 2.22 |

Same assay, conditions: with PIK3R3 (phosphatidylinositol 3-kinase regulatory subunit gamma), Q92569; yeast diploids after mating (RBait_S3 x RPrey_S3), 30 °C, selection for reporter genes on NB agar; human tyrosine kinase ABL2 co-expressed as the active kinase …; HIGHER = WEAKER BINDING (the opposite of display enrichments): higher = stronger loss of interaction: reverse Y2H selects yeast in which bait and prey do NOT interact (growth without adenine), so a …; hits-only table; scale: rY2H score; numbering: uniprot, sequence starts at 1

| Variant | enrichment |
| --- | --- |
| P396A | 1.66 |
| K313T | 9.73 and 7.27 |
| G157E | 5.03 and 2.8 |
| G157K | 7.92 |
| M431A | 2.23 |
| P410L | 2.56 |
| Q345E | 3.74 |
| M401A | 1.56 |
| R363E | 4.76 |
| T336K | 2.98 |
| K340L | 1.55 |
| A385K | 1.74 |
| P405E | 1.85 and 3.91 |
| P405Q | 4.58 |
| T473L | 4.41 |
| D476K | 5.97 |
| P409L | 1.63 |
| I329K | 1.89 |
| T168A | 6.22 |
| R270K | 4.09 |
| A406I | 5.49 |
| K318A | 5.56 |
| Q387L | 5.44 |
| D369K | 4.98 |
| H75E | 11.9 and 8.5 |
| F173S | 4.73 and 5.14 |
| L156W | 3.91 and 3.42 |
| K388A | 3.36 |
